Data from US20170275344A1, “POLYPEPTIDES AND USES THEREOF AS A DRUG FOR TREATMENT OF AUTOIMMUNE DISORDERS” (Compugen Ltd., priority 2014, published 2017).

How the values were obtained:
[1] = tested on: Female C57BL/6 recipient mice (CD45.2+); assay: HY bone marrow transplantation model, male CD45.1 BM into female CD45.2 mice (FACS of blood and spleen); assay type: in vivo, mouse
Description: A transplantation model utilizing male bone marrow (BM) cells from C57BL/6 mice transplanted into female mice of the same starin was used to study whether C1ORF32 ECD-Fc induces immune tolerance. In this model BM cells of the male mouse are rejected by the female recipients due to mismatch in the minor histocompatibility antigen encoded by the Y chromosome (Hya). To allow identification of the male cells in the female mice blood, male mice expressing CD45.1 isotype were selected while the female mice carry CD45.2 isotype. This model provides a tool for testing the effect of potential drugs on induction of tolerance towards the grafted cells.
In this model, C1ORF32 ECD-Fc (SEQ ID NO:42) treatment started one week before bone marrow transplantation and continued for five weeks. Female recipient mice were followed for percentage of CD45.1+ and CD45.2+ cells present within the blood.
Female C57BL/6 recipient mice (CD45.2+) were sub-lethally irradiated with 200 rads/cGy 24 hours before transplantation of either female C57Bl/6 (CD45.1+) or male C57Bl/6 (CD45.1+) 5×10^6 bone marrow cells. Recipient mice were allocated into treatment groups as detailed below (n=6 per group). Treatments were given at 300 ug/dose i.p, 3×/wk starting one week prior to transplantation and continued for 4 weeks following transplantation, giving a total of 15 treatments during this 5 weeks period.
1. Female CD45.1 into female CD45.2 2. Male CD45.1 into female CD45.2+anti-CD40L (300 ug/dose) (Clone MR-1; BioXCell, Cat#BE0017-1) 3. Male CD45.1 into female CD45.2+C1ORF ECD-Fc (SEQ ID NO:42) (300 ug/dose)2 4. Male CD45.1 into female CD45.2+Control Ig (mouse IgG2a) (300 ug/dose)
Beginning at 2 weeks following bone marrow transplantation, blood samples from the tail were collected from each mouse once a week for 4 weeks. Approximately 2-3 drops of blood were collected per mouse into 200 ul of PBS+EDTA (50 mM), samples were spun down, and RBCs lysed with ammonium chloride. The cells were washed 3× with PBS, stained with the viability dye Aqua Dead Cell Stain (Invitrogen; Cat#L34957), blocked with Fc Receptor block (anti-mouse CD16/32; eBioscience; Cat#14-0161-86), and stained with anti-mouse CD45.1 APC-Cy7 (eBiosciences; Cat#47-0453-80) and anti-mouse CD45.2 FITC (eBioscience; Cat#11-0454-82). The analysis for chimerism was determined by flow cytometric analysis (on total live cells) for the percentage of CD45.1+ versus CD45.2+ cells present in the blood of female recipient mice.
During weeks 6, 7, and 8 the blood samples were also stained to determine the percentage of CD4+ Teff cells and CD4+ Treg cells present within the blood using the cellular markers CD44, CD25, and FoxP3. Details of the Abs used in the flow panels for weeks 6, 7, and 8 are listed below.
These same populations of cells were analyzed at week 8 within the spleen. In addition, the proliferative and secreted cytokine responses of total splenocytes in ex vivo recall cultures were tested in the presence of medium alone, anti-CD3 (1 ug/ml), the HY antigen DBY peptide (NAGFNSNRANSSRSS; Genemed Synthesis; San Antonio, Tex.) (10 ug/ml), irradiated male splenocytes (1:1 ratio), or irradiated female splenocytes (1:1 ratio).

[2] = tested on: healthy human skin transplanted onto beige-SCID mice; assay: Humanized psoriasis model: healthy human skin xenotransplants on beige-SCID mice injected with psoriatic patients' PBMCs; assay type: in vivo, mouse; details: IHC, vs PBS treated group
Description: In this model, psoriasis is induced in xenotransplants of healthy human skin transplanted onto beige severe combined immunodeficiency (SCID) mice followed by intradermal (i.d.) injection of IL-2 enriched Peripheral Blood Mononuclear Cells (PBMCs) isolated from blood of psoriasis patients (Nickoloff, 1995; Wrone-Smith, 1996 Gilhar et al., 2002, 2006, 2011). The activity of these compounds was compared to that of Enbrel, a TNF inhibitor which is an approved biological drug for treatment of psoriasis. As a control for model robustness, we used dexamethasone, a steroid with suppressive effects on inflammatory cytokines and chemokines such as TNF-alpha and interferon-gamma which cause severe psoriasis. All treatments were administered intradermally, except for dexamethasone which was given topically.
Study Protocol: A) Healthy human skin pieces with a width of 0.4 mm and surface area of 1.5×1.5 cm were provided from residual skin of routine plastic surgery procedures from the Plastic Surgery Department of the Rambam Medical Center, Israel. In addition, 20 mL blood samples were taken from psoriatic patients. B) Seventy (70) beige-severe combined immunodeficient mice (SCID) (weight˜20-25 g) were included in this study. Normal healthy human donor skin was transplanted onto the beige-SCID mice as previously described (Nickoloff et al., 1995; Wrone-Smith, 1996; Gilhar et al., 2002, 2006, 2011; Kalish et al., 2009) and the mice were divided into 7 groups. C) Peripheral Blood Mononuclear Cells (PBMCs) isolated from psoriatic patients' blood were cultured in the presence of IL-2 [Prospec, 100 U/mL of RPMI 1640 media, 10% human AB serum (Sigma, St. Louis, Mo.), 1% glutamine, 1% antibiotics (media components; Biological Industries, Kibbutz Beit Haemeck, Israel)] for 14 days, as previously described (Gilhar et al, 2002). D) Four weeks following engraftment, each mouse was injected intra-dermally (i.d.) into the grafted skin lesion, with 1×10^7 activated allogeneic enriched PBMCs from psoriatic patients (FIG. 20). Cells from different psoriasis patients were equally distributed between treatment groups so that each patient is represented in each treatment group. E) On the day of PBMCs injection into the skin grafts, mice were divided randomly into treatment groups (n=9-10 mice per group) and administration of all drugs started (FIG. 20). All tested compounds including the vehicle were given intradermally (intralesional), three times a week, except for dexamethasone which was given topically for 14 consecutive days (Table 3).
F) Twenty eight days after starting the injections and treatment, skin was harvested (FIG. 20). Grafts were analyzed for the following psoriatic parameters by histology: epidermal thickening (acanthosis), suprapapillary epidermal thinning (papillomatosis), hyperkeratosis, parakeratosis, orthokeratosis, agranulosis-hypogranulosis, appearance of neutrophils in the upper spinous layer or in the corneal cell layer—Munro microabscess, regular elongation of rete ridges, angiogenesis, edema and dilated tortuous blood vessels in the dermal papilla and mononuclear cell infiltrate in the papillary dermis. Epidermal thickness was measured as detailed below, and HLA-DR, ICAM-1, Ki-67 and immune infiltrates (anti-CD3 stain) were evaluated by immunohistochemistry (IHC).
The entire skin graft was excised and placed in 10% formal saline overnight. Then, the specimens were place in 70% ethanol and were embedded according to the standard H&E protocol. Histological assessment of the skin grafts was performed by light microscopy and evaluated by two blinded observers [the second observer evaluated random slides (about 25% of all slides) to compare the data obtained by the first observer. […] Epidermal thickness was determined with an ocular micrometer at a minimum of 50 points along the epidermis selected to represent points of maximal and minimal thickness.
Representative grafts were allocated for IHC analysis. […]

[3] = week 6 post transplant, vs Control Ig

B1: C1ORF32 ECD-Fc (SEQ ID NO:42): fusion protein of human C1ORF32 ECD fused to mouse immunoglobulin Fc (human-mouse fusion protein) (protein)
chain: LQVTVPDKKKVAMLFQPTVLRCHFSTSSHQPAVVQWKFKSYCQDRMGESLGMSSTRAQSLSKRNLEWDPYLDCLDSRRTVRVVASKQGSTVTLGDFYRGREITIVHDADLQIGKLMWGDSGLYYCIITTPDDLEGKNEDSVELLVLGRTGLLADLLPSFAVEIMGSENLYFQGSGEPRGPTIKPCPPCKCPAPNLLGGPSVFIFPPKIKDVLMISLSPIVTCVVVDVSEDDPDVQISWFVNNVEVHTAQTQTHREDYNSTLRVVSALPIQHQDWMSGKEFKCKVNNKDLPAPIERTISKPKGSVRAPQVYVLPPPEEEMTKKQVTLTCMVTDFMPEDIYVEWTNNGKTELNYKNTEPVLDSDGSYFMYSKLRVEKKNWVERNSYSCSVVHEGLHNHHTTKSFSRTPGK
modifications: Fusion protein human C1ORF32-ECD fused to mouse IgG2a Fc
- graft rejection ([1]; 5 week dosing schedule beginning one week before transplant): effective in preventing graft rejection
- male donor CD45.1+ cells present in the blood of recipient females ([1]; week 4 post transplant, maintained until week 8, 300 ug/dose i.p. 3x/wk for 5 wks): highly significant number of male CD45.1+ cells were present
- effector/memory CD4+ T cells (CD45.1+/CD4+/CD44hi) within the blood [1, 3]: decrease
- resting CD4+ T cells (CD45.1+/CD4+/CD44lo) in blood [1, 3]: significantly higher percentage
- activated donor CD4+ T cells (CD45.1+/CD4+/CD25+/FoxP3-) in blood ([1]; week 7 post transplant, vs Control Ig): significantly lower percentage
- number of donor-derived (CD45.1+) CD4+/CD25+/FoxP3+ Treg cells and Treg subpopulations in spleen ([1]; week 8): striking increase
- donor (CD45.1+) Tregs (FoxP3+CD25+) in blood ([1]; week 8, vs Control Ig): significant increase
- donor (CD45.1+) activated CD4+ T cells (FoxP3-CD25+) in blood ([1]; week 8, vs Control Ig): decrease
- donor (CD45.1+) effector/memory CD4+ T cells (CD44hi) in blood ([1]; week 8, vs Control Ig): significant increase
- number of endogenous-derived (CD45.2+) Tregs and Treg subtypes in spleen ([1]; week 8, vs Ig control group): reduced
- percentage and number of CD45.1+/CD4+ T cells within the spleen ([1]; week 8 post transplant): increased
- infiltration of T cells (CD3 positive cells) [2]: significant reduction of CD3 positive cells
